Experimental findings from patent publication US20100040606A1 (SYMPHOGEN A S, published 2010) are described below.

Broadly, the Kd is the equilibrium constant for the complex coming apart. Broadly, the koff is the first-order rate constant of dissociation. In general, kon refers to a measure of how fast the partners come together.

To fix the notation:
T1: soluble recombinant G protein (amino acids 66-292 of the 18537 strain sequence) (RSV strain 18537 (subtype B), UniProt P20896 66-292)
T1 construct: also called G(B); recombinant protein G
T1 sequence: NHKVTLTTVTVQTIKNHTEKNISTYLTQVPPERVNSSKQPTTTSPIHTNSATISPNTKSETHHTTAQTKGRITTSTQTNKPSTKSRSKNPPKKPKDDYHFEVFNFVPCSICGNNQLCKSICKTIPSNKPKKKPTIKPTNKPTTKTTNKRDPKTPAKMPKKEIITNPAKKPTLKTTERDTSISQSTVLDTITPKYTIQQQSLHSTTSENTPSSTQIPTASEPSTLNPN

T2: recombinant human fractalkine (CX3CL1; R&D systems) (human, UniProt P78423 25-100)
T2 sequence (looked up): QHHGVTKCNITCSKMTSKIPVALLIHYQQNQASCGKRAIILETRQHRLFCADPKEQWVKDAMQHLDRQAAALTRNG

B1: antibody from clone 793 (antibody, human IgG1, kappa, V domains shown)
VH: QVQLVESGGGLVKPGGSLRLSCAASGFPFGDYYMSWIRQAPGKGLEWVAYINRGGTTIYYADSVKGRFTISRDNAKNSLFLQMNSLRAGDTALYYCARGLILALPTATVELGAFDIWGQGTMVTVSS
VL: DIQMTQSPSSLSASVGDRVTITCRASQSITGYLNWYQQKPGKAPKLLIYATSTLQSEVPSRFSGSGSGTDFTLTISSLQPEDFATYYCQQSYNTLTFGGGTKVEIKR
B2: antibody from clone 888 (antibody, human IgG1, kappa, V domains shown)
VH: QLQLQESGPGLVKPSETLSLTCTASGGSINSSNFYWGWIRQPPGKGLEWIGSIFYSGTTYYNPSLKSRVTISVDTSKNQFSLKLSPVTAADTAVYHCARHGFRYCNNGVCSINLDAFDIWGQGTMVTVSS
VL: DIVMTQSPLSLPVTPGAPASISCRSSQSLLRTNGYNYLDWYLQKPGQSPQLLIYLGSIRASGVPDRFSGSGSGTDFTLKISRVEAEDVGVYYCMQSLQTSITFGQGTRLEIKR
B3: antibody from clone 853 (antibody, human IgG1, kappa, V domains shown)
VH: EVQLVQSGAEVKKPGQSLKISCKTSGYIFTNYWIGWVRQRPGKGLEWMGVIFPADSDARYSPSFQGQVTISADKSIGTAYLQWSSLKASDTAIYYCARPKYYFDSSGQFSEMYYFDFWGQGTLVTVSS
VL: EIVLTQSPGTLSLSPGERATLSCRASQSVSSNYLAWYQQKPGQAPRLLIYGASSRAAGMPDRFSGSGSGTDFTLTISRLEPEDFAVYYCQQYGNSPLTFGGGTEVEIKR
B4: antibody from clone 855 (antibody, human IgG1, kappa, V domains shown)
VH: QVQLVQSGPEVKKPGASVKVSCKASGYVLTNYAFSWVRQAPGQGLEWLGWISGSNGNTYYAEKFQGRVTMTTDTSTSTAYMELRSLRSDDTAVYFCARDLLRSTYFDYWGQGTLVTVSS
VL: DIQMTQSPSSVSASVGDRVTITCRASQAISNWLAWYQQKPGKAPKLLIYAASSLQSGVPSRFSGSGSGTDFTLTISGLQPEDFATYYCQQADTFPFTFGPGTKVDIKR
B5: Fab fragment of antibody from clone 816 (Fab, V domains shown)
VH: EVQLLESGGGLVQPGGSLRLSCVASGFTFSTYAMTWVRQAPGKGLEWVSVIRASGDSEIYADSVRGRFTISRDNSKNTVFLQMDSLRVEDTAVYFCANIGQRRYCSGDHCYGHFDYWGQGTLVTVSS
VL: DIVMTQSPLSLPVTPGEPASISCRSSQSLLHSDGRYYVDWYLQKPGQSPHLLIYLASNRASGVPDRFTGSGSGTDFTLKISRVEAEDVGVYYCMQGLHTPWTFGQGTKVDIKR
B6: Fab fragment of antibody from clone 838 (Fab, V domains shown)
VH: QVQLVESGGGVVQPGTSLRLSCAASGFTFSTFGMHWVRQAPGKGLEWVAVISYDGNKKYYADSVKGRFTISRDNSKNTLYLQVNSLRVEDTAVYYCAAQTPYFNESSGLVPDWGQGTLVTVSS
VL: DIQMTQSPSSLSASVGDRVSITCRASQGISNYLAWYQQKPGKVPKLLIYAASTLQSGVPSRFSGSGSGTDFTLTISSLQPEDVATYYCQKYNSAPQTFGQGTKVEIKR
notes: also called Fab clone 838; 838 (G)
B7: Fab fragment of antibody from clone 859 (Fab, V domains shown)
VH: QVQLVESGGGVVQPGRSLRLSCAVSGSSFSKYGIHWVRQAPGKGLEWVAVISYDGSKKYFTDSVKGRFTIARDNSQNTVFLQMNSLRAEDTAVYYCATGGGVNVTSWSDVEHSSSLGYWGLGTLVTVSS
VL: B6 VL with S20T, S30R, I48V, Y49F, K90R, Q96L, Q100G
notes: also called Fab clone 859; 859 (G)
B8: Fab fragment of antibody from clone 811 (Fab, V domains shown)
VH: QVQLVQSGAVVETPGASVKVSCKASGYIFGNYYIHWVRQAPGQGLEWMAVINPNGGSTTSAQKFQDRITVTRDTSTTTVYLEVDNLRSEDTATYYCARQRSVTGGFDAWLLIPDASNTWGQGTMVTVSS
VL: DIVMTQSPDSLAVSLGERATINCRSSETVLYTSKNQSYLAWYQQKARQPPKLLLYWASTRESGVPARFSGSGSGTDFTLAISSLQAEDVAVYYCQQFFRSPFTFGPGTRLEIKR
notes: also called Fab clone 811; 811 (G)
B9: Fab fragment of antibody from clone 796 (Fab, V domains shown)
VH: QVQLVESGGGVVQPGRSLRLSCAASGFSFSHFGMHWVRQVPGKGLEWVAIISYDGNNVHYADSVKGRFTISRDNSKNTLFLQMNSLRDDDTGVYYCAKDDVATDLAAYYYFDVWGRGTLVTVSS
VL: DIVMTQTPLSLSVTPGQPASISCRSSQSLLRSDGKTFLYWYLQKPGQSPQPLMYEVSSRFSGVPDRFSGSGSGADFTLNISRVETEDVGIYYCMQGLKIRRTFGPGTKVEIKR
notes: also called Fab clone 796; 796 (G)
B10: Fab fragment of antibody from clone 853 (Fab, V domains shown)
VH: B3 VH
VL: B3 VL
notes: also called Fab clone 853; 853 (G)
B11: Palivizumab (antibody, V domains shown)
VH: QVTLRESGPALVKPTQTLTLTCTFSGFSLSTSGMSVGWIRQPPGKALEWLADIWWDDKKDYNPSLKSRLTISKDTSKNQVVLKVTNMDPADTATYYCARSMITNWYFDVWGAGTTVTVSS
VL: DIQMTQSPSTLSASVGDRVTITCKCQLSVGYMHWYQQKPGKAPKLLIYDTSKLASGVPSRFSGSGSGTEFTLTISSLQPDDFATYYCFQGSGYPFTFGGGTKLEIK
B12: antibody from clone 816 (antibody, human IgG1, kappa, V domains shown)
VH: B5 VH
VL: B5 VL
B13: antibody from clone 841 (antibody, human IgG1, kappa, V domains shown)
VH: QVQLVQSGAEVKKPGASVKVSCKASGYTFISFGISWVRQAPGQGLEWMGWISAYNGNTDYAQRLQDRVTMTRDTATSTAYLELRSLKSDDTAVYYCTRDESMLRGVTEGFGPIDYWGQGTLVTVSS
VL: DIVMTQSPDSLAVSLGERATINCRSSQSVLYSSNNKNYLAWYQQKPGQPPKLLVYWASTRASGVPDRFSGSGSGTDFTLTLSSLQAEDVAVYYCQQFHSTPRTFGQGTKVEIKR
B14: antibody from clone 835 (antibody, human IgG1, kappa, V domains shown)
VH: QVQLVQSGAEVKRPGASVKVSCKASGYTFISYGFSWVRQAPGQGLEWMGWSSVYNGDTNYAQKFHGRVNMTTDTSTNTAYMELRGLRSDDTAVYFCARDRNVVLLPAAPFGGMDVWGQGTMVTVSS
VL: DIQLTQSPSFLSASLEDRVTITCRASQGISSYLAWYQQKPGKAPKLLLDAASTLQSGVPSRFSGSGSGTEFTLTISSLQPEDFATYYCQQLNSYPRTFGQGTKVDIKR
B15: antibody from clone 856 (antibody, human IgG1, kappa, V domains shown)
VH: QVQLVQSGAEVKKPGASVKVSCKASGYTFSNYGFSWVRQAPGRGLEWMGWISAYNGNTYYAQNLQGRVTMTTDTSTTTAYMVLRSLRSDDTAMYYCARDGNTAGVDMWSRDGFDIWGQGTMVTVSS
VL: DIVMTQTPLSLPVTPGEPASISCRSSQSLLDSNDGNTYLDWYLQKPGQSPQLLIYTFSYRASGVPDRFSGSGSGTDFTLKISRVEAEDVGVYYCMQRIEFPYTFGQGTKLEIKR

Residue numbers refer to the chain shown, from its start.

RSV protein F (fusion glycoprotein), recombinant or purified, sequence (P03420 26-109, chain 1 of 2): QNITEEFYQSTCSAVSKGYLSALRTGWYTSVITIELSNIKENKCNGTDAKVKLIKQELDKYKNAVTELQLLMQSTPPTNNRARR
RSV protein F (fusion glycoprotein), recombinant or purified, sequence (P03420 137-524, chain 2 of 2): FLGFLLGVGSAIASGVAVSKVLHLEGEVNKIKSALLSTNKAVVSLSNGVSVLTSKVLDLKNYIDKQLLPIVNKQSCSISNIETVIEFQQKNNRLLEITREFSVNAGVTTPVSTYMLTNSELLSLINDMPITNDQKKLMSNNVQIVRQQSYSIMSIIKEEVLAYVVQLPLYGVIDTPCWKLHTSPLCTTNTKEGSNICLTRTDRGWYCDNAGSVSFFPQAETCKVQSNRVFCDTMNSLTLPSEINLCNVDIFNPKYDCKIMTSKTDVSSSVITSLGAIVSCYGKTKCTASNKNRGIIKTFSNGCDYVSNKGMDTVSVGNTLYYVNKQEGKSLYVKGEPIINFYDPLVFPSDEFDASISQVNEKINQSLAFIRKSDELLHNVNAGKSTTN

The first test addresses RSV G protein (receptor-binding glycoprotein) (human respiratory syncytial virus, …). As to the kind of experiment: cell-based or functional assay.
For the molecule B1, the “EC50, PRNT with complement, RSV subtype A” value (“EC50, PRNT with complement” below) was determined as 2.52 µg/mL.
In the case of B2, the “EC50, PRNT with complement” value worked out at 0.14 µg/mL.
Consider B3, for which the “EC50, PRNT with complement” value came out at 1.49 µg/mL.
With B4, the “EC50, PRNT with complement” value came out at 6.35 µg/mL.

A further test deals with T1, soluble recombinant G protein (amino …). As to the kind of experiment: SPR (Biacore 3000), Fab over immobilised recombinant antigen.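 Note: antigen immobilised on CM5 chip at very low density (about 50 RU), rate constants fitted globally with a 1:1 Langmuir model, Fabs obtained by enzymatic cleavage.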 On the technique in general: Surface plasmon resonance follows binding to a sensor surface in real time, without labels.
As to B5, the Kd amounted to 90 pM, the koff came to 0.000178 s⁻¹, the on-rate constant (kon) is 2.02e+06 M⁻¹ s⁻¹ and the t1/2 was determined as 1.08 h.
B6: the Kd was 190 pM, the koff was determined as 5.06e-05 s⁻¹, the kon came to 264000 M⁻¹ s⁻¹ and the t1/2 was 3.83 h.
For B7, in that order: 120 pM, 4.63e-05 s⁻¹, 380000 M⁻¹ s⁻¹ and 4.17 h.
As to B8, the Kd came out at 340 pM, the koff was determined as 0.000171 s⁻¹, the kon amounted to 498000 M⁻¹ s⁻¹ and the t1/2 was found to be 1.13 h.
In the case of B9, the Kd was determined as 480 pM, the koff stood at 0.000403 s⁻¹, the kon turned out to be 833000 M⁻¹ s⁻¹ and the t1/2 came out at 0.478 h.
On to B10, for which the Kd turned out to be 790 pM, the koff amounted to 0.0014 s⁻¹, the on-rate constant (kon) worked out at 1.77e+06 M⁻¹ s⁻¹ and the t1/2 worked out at 0.138 h.

Another test has as its target RSV protein F (fusion glycoprotein), recombinant or purified (human respiratory syncytial virus, …, UniProt P03420 26-109; P03420 137-524). As to the kind of experiment: cell-based or functional assay.
On to B11, for which the “EC50, PRNT with complement” value was 0.14 µg/mL.

The next test has as its target T2, recombinant human fractalkine (CX3CL1; …). Put plainly: ELISA.
Consider B1, for which the binding result is given as “no binding”.
Regarding B12, the binding result is given as “no binding”.
Consider B2, for which the binding result is “no binding”.
As to B13, the binding result is given as “no binding”.
As to B14, the binding result is on record as “no binding”.
The same measure, in the same setting: in the case of B15 it was “no binding”; in that of B3, “no binding”.
The same measure, in the same setting: in the case of B4 it was “no binding”.
